Reference: publication doi:10.1101/2020.08.14.246132 (bioRxiv, 2020)

Target: DPP9, short isoform (His-TEV-DPP9), co-expressed with NLRP1ΔΔ for cryo-EM (human, UniProt Q86TI2-1 1-863)
Experiment: cryo-EM structure

DPP9, short isoform (His-TEV-DPP9), co-expressed with NLRP1ΔΔ for cryo-EM, sequence (Q86TI2 whole entry, stated change not applied, canonical isoform): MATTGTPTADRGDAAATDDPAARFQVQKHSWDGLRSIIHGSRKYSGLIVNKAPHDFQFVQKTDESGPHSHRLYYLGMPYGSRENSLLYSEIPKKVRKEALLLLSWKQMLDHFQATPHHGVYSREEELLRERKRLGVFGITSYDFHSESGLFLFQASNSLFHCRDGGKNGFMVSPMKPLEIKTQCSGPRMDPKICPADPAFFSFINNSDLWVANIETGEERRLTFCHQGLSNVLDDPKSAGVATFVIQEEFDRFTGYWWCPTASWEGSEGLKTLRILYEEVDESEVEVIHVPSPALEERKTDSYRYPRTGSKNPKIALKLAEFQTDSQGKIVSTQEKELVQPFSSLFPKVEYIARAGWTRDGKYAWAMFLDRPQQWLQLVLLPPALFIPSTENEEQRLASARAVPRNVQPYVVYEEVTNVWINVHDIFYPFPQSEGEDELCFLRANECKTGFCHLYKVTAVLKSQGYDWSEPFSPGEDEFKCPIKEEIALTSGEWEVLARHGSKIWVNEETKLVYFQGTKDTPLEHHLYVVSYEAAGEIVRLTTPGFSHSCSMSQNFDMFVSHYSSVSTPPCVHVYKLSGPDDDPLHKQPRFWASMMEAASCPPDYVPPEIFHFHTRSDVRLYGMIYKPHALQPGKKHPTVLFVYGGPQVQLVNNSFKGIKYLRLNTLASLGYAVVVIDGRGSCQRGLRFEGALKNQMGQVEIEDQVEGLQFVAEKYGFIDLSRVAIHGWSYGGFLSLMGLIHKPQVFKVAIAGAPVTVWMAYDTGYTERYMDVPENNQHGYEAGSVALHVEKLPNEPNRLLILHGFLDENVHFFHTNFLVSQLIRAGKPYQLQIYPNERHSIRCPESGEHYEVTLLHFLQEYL

binding result: binds
B1: NLRP1-CT freed from NLRP1ΔΔ (UPA subdomain only), molecule B of the NLRP1^A-NLRP1^B-DPP9 ternary complex (domain or fragment, human, UniProt Q9C000-1 1213-1364, looked up)
chain: SPLGVLLKMIHNALRFIPVTSVVLLYHRVHPEEVTFHLYLIPSDCSIRKAIDDLEMKFQFVRIHKPPPLTPLYMGCRYTVSGSGSGMLEILPKELELCYRSPGEDQLFSEFYVGHLGSGIRLQVKDKKDETLVWEALVKPGDLMPATTLIPP
